Reference: the supplement of paper PMC9112550, “Optimization of the antimicrobial peptide Bac7 by deep mutational scanning” (BMC Biology, 2022)

Tested on: Escherichia coli TOP10
Experiment: shrunken log2 fold change of peptide-encoding DNA abundance (4.5 h post-induction vs induction); higher = less antimicrobial activity (less host growth inhibition)
Settings: time post-induction: 4.5 h; library: site-saturation at positions 5, 18, 19, 20
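Also: peptides expressed intracellularly from a pBAD plasmid library in pooled LB shake-flask culture, induced with 0.3% L-arabinose, DNA abundance read by NGS, three biological replicates, DESeq2 with apeglm shrinkage.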

| Sequence | shrunken log2 fold change |
| --- | --- |
| RRIRGRPPRLPRPRPRPAFRPRP | 0.749 |
| RRIRERPPRLPRPRPRPQSTPRP | -0.319 |
| RRIRYRPPRLPRPRPRPMALPRP | -0.142 |
| RRIRWRPPRLPRPRPRPVGIPRP | -0.198 |
| RRIRFRPPRLPRPRPRPLQVPRP | -0.135 |
| RRIRDRPPRLPRPRPRPAIPPRP | -0.538 |
| RRIRSRPPRLPRPRPRPDWYPRP | -0.3 |
| RRIRWRPPRLPRPRPRPFTMPRP | -0.36 |
| RRIRYRPPRLPRPRPRPLYFPRP | -1.15 |
| RRIRGRPPRLPRPRPRPFLQPRP | 0.231 |
| RRIRNRPPRLPRPRPRPMWLPRP | 0.0773 |
| RRIRARPPRLPRPRPRPRMQPRP | 0.637 |
| RRIRMRPPRLPRPRPRPYLPPRP | -0.78 |
| RRIRNRPPRLPRPRPRPFESPRP | 0.00843 |
| RRIRERPPRLPRPRPRPRSKPRP | 0.00172 |
| RRIRFRPPRLPRPRPRPWTDPRP | -0.345 |
| RRIRTRPPRLPRPRPRPTYVPRP | -0.163 |
| RRIRIRPPRLPRPRPRPWFPPRP | -0.349 |
| RRIRSRPPRLPRPRPRPVPAPRP | 0.122 |
| RRIRSRPPRLPRPRPRPLDVPRP | -0.21 |
| RRIRWRPPRLPRPRPRPRECPRP | 0.605 |
| RRIRWRPPRLPRPRPRPHDKPRP | 0.0422 |
| RRIRWRPPRLPRPRPRPLNEPRP | -0.0646 |
| RRIRLRPPRLPRPRPRPCRIPRP | -0.0656 |
| RRIRSRPPRLPRPRPRPPKMPRP | 0.00423 |

| Sequence | shrunken log2 fold change |
| --- | --- |
| RRIRCRPPRLPRPRPRPHPKPRP | -0.102 |
| RRIRQRPPRLPRPRPRPPRMPRP | 0.442 |
| RRIRGRPPRLPRPRPRPRWFPRP | 0.355 |
| RRIRNRPPRLPRPRPRPRAFPRP | 0.0795 |
| RRIRFRPPRLPRPRPRPKIIPRP | -0.592 |
| RRIRLRPPRLPRPRPRPMHQPRP | 0.136 |
| RRIRRRPPRLPRPRPRPHMHPRP | -0.083 |
| RRIRWRPPRLPRPRPRPRDHPRP | 0.526 |
| RRIRRRPPRLPRPRPRPWFRPRP | 0.0331 |
| RRIRERPPRLPRPRPRPTPVPRP | 0.059 |
| RRIRDRPPRLPRPRPRPQFDPRP | -0.0102 |
| RRIRERPPRLPRPRPRPQPNPRP | -0.084 |
| RRIRHRPPRLPRPRPRPRDDPRP | -0.0505 |
| RRIRQRPPRLPRPRPRPATWPRP | 0.343 |
| RRIRNRPPRLPRPRPRPPDQPRP | 0.184 |
| RRIRNRPPRLPRPRPRPWDGPRP | 0.185 |
| RRIRWRPPRLPRPRPRPRMRPRP | 1.03 |
| RRIRVRPPRLPRPRPRPNFSPRP | -0.153 |
| RRIRCRPPRLPRPRPRPLTMPRP | -0.262 |
| RRIRTRPPRLPRPRPRPCCCPRP | 0.276 |
| RRIRNRPPRLPRPRPRPHTPPRP | -0.317 |
| RRIRKRPPRLPRPRPRPGCRPRP | 0.654 |
| RRIRWRPPRLPRPRPRPIAGPRP | 0.0596 |
| RRIRCRPPRLPRPRPRPPWTPRP | 0.224 |
| RRIRFRPPRLPRPRPRPHFKPRP | -0.599 |

| Sequence | shrunken log2 fold change |
| --- | --- |
| RRIRLRPPRLPRPRPRPDNLPRP | -0.186 |
| RRIRNRPPRLPRPRPRPGDEPRP | 0.0115 |
| RRIRQRPPRLPRPRPRPKRPPRP | 0.135 |
| RRIRIRPPRLPRPRPRPCKGPRP | 0.00355 |
| RRIRQRPPRLPRPRPRPLFTPRP | -0.426 |
| RRIRQRPPRLPRPRPRPVSSPRP | -0.255 |
| RRIRNRPPRLPRPRPRPDDHPRP | -0.0202 |
| RRIRVRPPRLPRPRPRPCQPPRP | -0.236 |
| RRIRCRPPRLPRPRPRPQTCPRP | 0.034 |
| RRIRERPPRLPRPRPRPDEEPRP | -0.142 |
| RRIRKRPPRLPRPRPRPGCGPRP | 0.761 |
| RRIRYRPPRLPRPRPRPNFEPRP | -0.242 |
| RRIRMRPPRLPRPRPRPETKPRP | 0.253 |
| RRIRPRPPRLPRPRPRPCKVPRP | -0.348 |
| RRIRQRPPRLPRPRPRPDHNPRP | -0.328 |
| RRIRERPPRLPRPRPRPQHLPRP | 0.0167 |
| RRIRFRPPRLPRPRPRPAFPPRP | 0.00578 |
| RRIRIRPPRLPRPRPRPPFMPRP | -0.256 |
| RRIRQRPPRLPRPRPRPWGKPRP | -0.103 |
| RRIRCRPPRLPRPRPRPQPKPRP | 0.273 |
| RRIRARPPRLPRPRPRPFNPPRP | -0.432 |
| RRIRKRPPRLPRPRPRPFPYPRP | -0.135 |
| RRIRFRPPRLPRPRPRPIHGPRP | -0.0163 |
| RRIRQRPPRLPRPRPRPSSWPRP | -0.0176 |
| RRIRWRPPRLPRPRPRPPPDPRP | 0.906 |

| Sequence | shrunken log2 fold change |
| --- | --- |
| RRIRVRPPRLPRPRPRPFEWPRP | -0.102 |
| RRIRCRPPRLPRPRPRPRPWPRP | 0.432 |
| RRIRWRPPRLPRPRPRPLVPPRP | -0.000952 |
| RRIRHRPPRLPRPRPRPECYPRP | -0.0176 |
| RRIRLRPPRLPRPRPRPMCSPRP | 0.382 |
| RRIRGRPPRLPRPRPRPAPAPRP | 1.14 |
| RRIRARPPRLPRPRPRPLHYPRP | -0.174 |
| RRIRDRPPRLPRPRPRPPYDPRP | -0.00841 |
| RRIRSRPPRLPRPRPRPLQCPRP | 0.116 |
| RRIRKRPPRLPRPRPRPHYHPRP | -0.145 |
| RRIRPRPPRLPRPRPRPQMAPRP | 0.129 |
| RRIRLRPPRLPRPRPRPRYCPRP | -0.357 |
| RRIRSRPPRLPRPRPRPGWTPRP | -0.0313 |
| RRIRERPPRLPRPRPRPQWKPRP | -0.0957 |
| RRIRFRPPRLPRPRPRPGLRPRP | 0.23 |
| RRIRIRPPRLPRPRPRPGKSPRP | -0.0715 |
| RRIRHRPPRLPRPRPRPWGFPRP | -0.0192 |
| RRIRSRPPRLPRPRPRPGFTPRP | -0.125 |
| RRIRQRPPRLPRPRPRPGTQPRP | -0.152 |
| RRIRGRPPRLPRPRPRPRYIPRP | -0.222 |
| RRIRARPPRLPRPRPRPGSTPRP | 0.247 |
| RRIRQRPPRLPRPRPRPRCEPRP | -0.128 |
| RRIRIRPPRLPRPRPRPGSRPRP | -0.0379 |
| RRIRHRPPRLPRPRPRPANEPRP | 0.0508 |
| RRIRYRPPRLPRPRPRPIVCPRP | -0.134 |

| Sequence | shrunken log2 fold change |
| --- | --- |
| RRIRYRPPRLPRPRPRPRNRPRP | -0.0543 |
| RRIRVRPPRLPRPRPRPGFVPRP | 0.0922 |
| RRIRERPPRLPRPRPRPSRHPRP | -0.439 |
| RRIRVRPPRLPRPRPRPRNNPRP | -0.425 |
| RRIRDRPPRLPRPRPRPNCYPRP | -0.414 |
| RRIRDRPPRLPRPRPRPCYEPRP | 0.00345 |
| RRIRDRPPRLPRPRPRPTAQPRP | 0.0542 |
| RRIRCRPPRLPRPRPRPSAGPRP | 0.194 |
| RRIRDRPPRLPRPRPRPHCMPRP | -0.24 |
| RRIRIRPPRLPRPRPRPVQFPRP | -0.303 |
| RRIRWRPPRLPRPRPRPKQDPRP | 0.00878 |
| RRIRIRPPRLPRPRPRPDVGPRP | -0.284 |
| RRIRCRPPRLPRPRPRPDIIPRP | -0.132 |
| RRIRSRPPRLPRPRPRPPDCPRP | -0.046 |
| RRIRLRPPRLPRPRPRPVAKPRP | 0.123 |
| RRIRNRPPRLPRPRPRPFYMPRP | -0.18 |
| RRIRCRPPRLPRPRPRPAWVPRP | 0.316 |
| RRIRGRPPRLPRPRPRPCHLPRP | -0.0648 |
| RRIRTRPPRLPRPRPRPCFNPRP | -0.667 |
| RRIRNRPPRLPRPRPRPNNQPRP | -0.703 |
| RRIRERPPRLPRPRPRPHALPRP | -0.236 |
| RRIRRRPPRLPRPRPRPHQWPRP | 0.144 |
| RRIRTRPPRLPRPRPRPGAAPRP | 0.509 |
| RRIRGRPPRLPRPRPRPFFSPRP | 0.125 |
| RRIRERPPRLPRPRPRPKHPPRP | -0.0977 |

| Sequence | shrunken log2 fold change |
| --- | --- |
| RRIRVRPPRLPRPRPRPYQCPRP | -0.185 |
| RRIRLRPPRLPRPRPRPAFLPRP | 0.134 |
| RRIRCRPPRLPRPRPRPRKNPRP | -0.00471 |
| RRIRDRPPRLPRPRPRPDSCPRP | 0.0444 |
| RRIRTRPPRLPRPRPRPDDPPRP | -0.00805 |
| RRIRYRPPRLPRPRPRPRLDPRP | -0.176 |
| RRIRERPPRLPRPRPRPSLVPRP | -0.0847 |
| RRIRERPPRLPRPRPRPYSEPRP | -0.157 |
| RRIRYRPPRLPRPRPRPIIVPRP | -0.249 |
| RRIRARPPRLPRPRPRPIKGPRP | 0.3 |
| RRIRARPPRLPRPRPRPHTYPRP | -0.126 |
| RRIRLRPPRLPRPRPRPRPPPRP | 1.58 |
| RRIRVRPPRLPRPRPRPIMYPRP | -0.514 |
| RRIRNRPPRLPRPRPRPKGCPRP | -0.0382 |
| RRIRKRPPRLPRPRPRPTQSPRP | 0.441 |
| RRIRQRPPRLPRPRPRPMMAPRP | 0.216 |
| RRIRARPPRLPRPRPRPPQAPRP | 1.03 |
| RRIRIRPPRLPRPRPRPGMYPRP | 0.123 |
| RRIRCRPPRLPRPRPRPKFTPRP | -0.391 |
| RRIRERPPRLPRPRPRPLMKPRP | -0.502 |
| RRIRARPPRLPRPRPRPNKMPRP | -0.177 |
| RRIRRRPPRLPRPRPRPEAYPRP | 0.15 |
| RRIRHRPPRLPRPRPRPKWWPRP | 0.0178 |
| RRIRLRPPRLPRPRPRPLVPPRP | -0.258 |
| RRIRYRPPRLPRPRPRPIGPPRP | -0.00962 |
